Patent publication US20210363266A1 (JIANGSU HENGRUI MEDICINE, published 2021)
Read-outs that look alike come from different tables or passages of the source.

B1: murine mAb B1E7 (antibody, V domains shown)
VH: EVQLQQSGAELVRAGSSVEMSCKASGYTFTSYGLNWVKQRPGQGLEWIGYINPGSGYTKYNEKFEGKTTLTVDKSSSTVYMQLRSLTSEDSAVYFCARWGLGRNWNFAVWGTGTTVTVSS
VL: DIVLTQSPASLAVSLGQRATMSCRASESVDSYGNTFMHWYQQKPGQPPKLLIYRASNLESGIPARFSGSGSGTDFTLTINPVEADDVATYYCQQSNEDPLTFGSGTKLEIK
notes: Murine hybridoma antibody
B2: chimeric antibody ChB1E7 (antibody, V domains shown)
VH: EVQLQQSGAELVRAGSSVEMSCKASGYTFTSYGLNWVKQRPGQGLEWIGYINPGSGYTKYNEKFEGKTTLTVDKSSSTVYMQLRSLTSEDSAVYFCARWGLGRNWNFAVWGTGTTVTVSS
VL: DIVLTQSPASLAVSLGQRATMSCRASESVDSYGNTFMHWYQQKPGQPPKLLIYRASNLESGIPARFSGSGSGTDFTLTINPVEADDVATYYCQQSNEDPLTFGSGTKLEIK
B3: humanized antibody huB1E7 (VH-c heavy chain and VL-c light chain) (antibody, human IgG2, kappa, V domains shown)
VH: EVQLVQSGAEVKKPGSSVKVSCKASGYTFTSYGLNWVRQAPGQGLEWMGYINPGSGYTKYNEKFEGRVTITADKSTSTAYMELSSLRSEDTAVYYCARWGLGRNWNFAVWGQGTLVTVSS
VL: DIVMTQSPDSLAVSLGERATINCRASESVDSYGNTFMHWYQQKPGQPPKLLIYRASNLESGVPDRFSGSGSGTDFTLTISSLQAEDVAVYYCQQSNEDPLTFGQGTKLEIKR
notes: also called huB1E7-IgG1
B4: humanized antibody huB1E10 (VH-c heavy chain and VL-c light chain) (antibody, human IgG2, kappa, V domains shown)
VH: EVQLVESGGGVVQPGRSLRLSCAASGFTFGDYYMYWVRQAPGKGLEWVATISEGGSYTYYPDNVKGRFTISRDNAKNTLYLQMNSLRAEDTAVYYCARYYSKALYAMDYWGRGTLVTVSS
VL: EIVLTQSPATLSLSPGERATLSCRASKSVSTSGFSYIHWYQQKPGQPPRLLIYTASNLESGVPARFSGSGSGTDFTLTISSLEPEDFAVYYCQHSRELPLTFGQGTKLEVKR
notes: also called huB1E10-IgG1
B5: murine mAb B1E10 (antibody, V domains shown)
VH: EVQLVESGGGLVEPGGSLKLSCAASGFTFGDYYMYWVRQTPEKRLEWVATISDGGSYTYYPDNVKGRFTISRDNAKNSLDLQMSHLKSEDTAMYYCARYYSKALYAMDYWGRGTSVTVSS
VL: DIVLTQSPASLAVSLGQRATLSCRASKSVSTSGFSYIHWYQQKPGQPPKLLIYTASNLESGVPARFSGSGSGTDFTLNIHPVEEEDAATYYCQHSRELPLTFGAGTKLEVK
notes: Murine hybridoma antibody
B6: chimeric antibody ChB1E10 (antibody, V domains shown)
VH: EVQLVESGGGLVEPGGSLKLSCAASGFTFGDYYMYWVRQTPEKRLEWVATISDGGSYTYYPDNVKGRFTISRDNAKNSLDLQMSHLKSEDTAMYYCARYYSKALYAMDYWGRGTSVTVSS
VL: DIVLTQSPASLAVSLGQRATLSCRASKSVSTSGFSYIHWYQQKPGQPPKLLIYTASNLESGVPARFSGSGSGTDFTLNIHPVEEEDAATYYCQHSRELPLTFGAGTKLEVK
B7: MOR7480 (Pfizer) (antibody, V domains shown)
VH: QVQLVQSGAEVKKPGESLKISCKGSGYSFSTYWISWVRQMPGKGLEWMGKIYPGDSYTNYSPSFQGQVTISADKSISTAYLQWSSLKASDTAMYYCARGYGIFDYWGQGTLVTVSS
VL: DIELTQPPSVSVAPGQTARISCSGDNIGDQYAHWYQQKPGQAPVVVIYQDKNRPSGIPERFSGSNSGNTATLTISGTQAEDEADYYCATYTGFGSLAVFGGGTKLTVL
B8: murine mAb B1A7 (antibody, V domains shown)
VH: QVTLKESGPGILQPSQTLSLTCSFSGFSLSTSGMGVGWIRQPSGKGLEWLAHIWWDDVKRYNPALKSRLTISKDTSSSQVFLKIASVDTADTATYYCAQMTSSVFAYWGQGTLVTVSA
VL: DIVLTQSPDSLAVSLGQRATISCRASESVDSYGHSFMHWYQQKPGQPPKLLIYRASNLESGIPARFSGSGSRTDFTLTINVVEADDVATYYCHQSYEEPWTFGGGTKLEIK
notes: Murine hybridoma antibody

What was measured:
[1] = target: human 4-1BB on the reporter cell strain HEK293F-h4-1BB-NFkB (human, UniProt Q07011 24-255); experiment: cell-based or functional assay
[2] = target: T1, human 4-1BB His protein (Sinobiological, Beijing #10041-H08H) (human, UniProt Q07011 24-186, biotinylated in the capture ELISA (sites not given)); experiment: capture ELISA, antibody captured, biotinylated 4-1BB-his
T1 construct: Bought protein; also called biotinylated 4-1BB-his protein; not shown: His tag
Procedure: The goat anti-mouse IgG secondary antibody (Jackson Immuno Research, cat #115-006-071) was diluted to a concentration of 2 μg/ml with PBS buffer, pH 7.4, added into a 96-well microtiter plate at 100 μl/well, and placed in an incubator at 37° C. for 2 hours. The plate was washed once with PBST, 200 μl/well of 5% skim milk (skim milk powder, Bright Dairy) blocking solution diluted with PBST was added, and incubated at 37° C. for 2 hours or at 4° C. overnight (16-18 hours) for blocking. After the blocking was finished, the blocking solution was discarded and the plate was washed 4 times with PBST.
The test mouse sera or antibodies were diluted to various concentrations with 5% NHS sample dilution solution (2.5% skim milk in PBST), incubated at room temperature for 40 minutes, added into the plate at 100 μl/well, and incubated at 37° C. for 40 minutes. After the incubation, the plate was washed 4 times with PBST, 100 μl/well of the biotinylated 4-1BB-his protein (Sinobiological, Beijing #10041-H08H) diluted with the sample dilution solution was added, and incubated at 37° C. for 40 minutes. After the incubation, the plate was washed 4 times with PBST, 100 μl/well of HRP-labeled streptavidin (Jackson Immuno Research, cat #016-030-084) diluted with PBST was added, and incubated at 37° C. for 40 minutes. The plate was washed 4 times with PBST, 100 μl/well of TMB chromogenic substrate (Huzhou Innoreagents Biotechnology Co., Ltd.) was added, incubated at room temperature for 10-15 min in the dark, and 50 μl/well 1M H₂SO₄ was added to terminate the reaction. The absorbance was read at 450 nm under a microplate reader (Beijing Prang New Technology Co., Ltd., Model DNM-9602) and the resulting data were analyzed. The capture ELISA results of three hybridoma mouse antibodies and the Pfizer reference antibody MOR7480 and the BMS reference antibody Urelumab were shown in FIG. 1.

[3] = target: T1, human 4-1BB His protein …; experiment: blocking ELISA: 4-1BB-his coated, antibody varied, competitor 4-1BBL-Fc at 0.8 ng/ml
Procedure: The 4-1BB-his protein was diluted to a concentration of 2 μg/ml with a carbonate buffer pH 9.6, and added into a 96-well microtiter plate at a volume of 100 μl/well, and placed in an incubator at 37° C. for 2 hours. The plate was washed once with PBST, 200 μl/well of 5% skim milk (skim milk powder, Bright Dairy) blocking solution diluted with PBST was added, and incubated at 37° C. for 2 hours or at 4° C. overnight (16-18 hours) for blocking. After the blocking was finished, the blocking solution was discarded and the plate was washed 4 times with PBST.
The test mouse sera or antibodies and internal control 4-1BBL were diluted to various concentrations with a sample diluent solution (2.5% skim milk in PBST), added into a plate at 100 μl/well, and incubated in an incubator at 37° C. for 40 minutes. After the incubation, the plate was washed 4 times with PBST, 100 μl/well of 0.8 ng/ml 4-1BBL-Fc (Acro, #41L-H5257) protein diluted with a sample dilution solution was added, and incubated at 37° C. for 40 minutes. […] The absorbance was read at 450 nm under a microplate reader (Beijing Prang New Technology Co., Ltd., Model DNM-9602) and the resulting data were analyzed. […]

[4] = target: T1, human 4-1BB His protein …; experiment: SPR Biacore T200, antibody amine-coupled, 4-1BB His as analyte, 1:1 model
Procedure: (§1) The recombinant anti-4-1BB antibodies to be tested of the present application were covalently linked to CMS (GE) chip by NHS standard amino coupling method with a kit available from Biacore. Then, a series of gradient concentrations of human 4-1BB His protein (Sinobiological, Beijing #10041-H08H) diluted in the same buffer were injected at a flow rate of 10 μL/min. Regeneration was performed with regeneration reagents provided in the kit. Antigen-antibody binding kinetics were followed for 3 minutes and dissociation kinetics were followed for 10 minutes. The resulting data were analyzed using 1:1 (Langmuir) binding model with BIAevaluation software available from GE.

[5] = target: T1, human 4-1BB His protein …; experiment: as above; remark: listed apart in the source
Procedure: as §1

[6] = target: T1, human 4-1BB His protein …; experiment: SPR Biacore T200

human 4-1BB on the reporter cell strain HEK293F-h4-1BB-NFkB, sequence (Q07011 24-255): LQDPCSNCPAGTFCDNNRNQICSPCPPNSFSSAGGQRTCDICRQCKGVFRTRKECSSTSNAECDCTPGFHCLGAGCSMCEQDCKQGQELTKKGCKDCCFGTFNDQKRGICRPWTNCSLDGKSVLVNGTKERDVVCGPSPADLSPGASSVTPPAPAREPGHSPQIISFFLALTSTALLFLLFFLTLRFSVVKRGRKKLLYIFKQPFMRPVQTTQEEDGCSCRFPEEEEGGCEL

| Binder | luciferase activity [1] | EC50 [2] | EC50 [3] | Kd [4] | koff [4] | kon [4] | Kd [5] | koff [5] | kon [5] | fold affinity against the reference antibody MOR7480 [6] |
| --- | --- | --- | --- | --- | --- | --- | --- | --- | --- | --- |
| B1 | 1100 | 0.332 µg/mL | 0.592 µg/mL |  |  |  |  |  |  |  |
| B2 |  |  |  | 1.48 nM | 0.006 s⁻¹ | 4.05e+06 M⁻¹ s⁻¹ |  |  |  |  |
| B3 |  |  |  |  |  |  | 1.95 nM | 0.00663 s⁻¹ | 3.39e+06 M⁻¹ s⁻¹ |  |
| B4 |  |  |  |  |  |  | 0.267 nM | 0.00263 s⁻¹ | 9.85e+06 M⁻¹ s⁻¹ | ~2 fold |
| B5 | 2520 | 0.881 µg/mL |  |  |  |  |  |  |  |  |
| B6 |  |  |  | 0.423 nM | 0.000542 s⁻¹ | 1.28e+06 M⁻¹ s⁻¹ |  |  |  |  |
| B7 |  | 0.084 µg/mL |  | 0.417 nM | 0.000336 s⁻¹ | 805000 M⁻¹ s⁻¹ | 0.417 nM | 0.000336 s⁻¹ | 805000 M⁻¹ s⁻¹ |  |
| B8 | 965 | 0.0559 µg/mL | 0.417 µg/mL |  |  |  |  |  |  |  |
